B1: recombinant 6xHis-tagged Kap120 (natural protein, S. cerevisiae, UniProt Q02932 1-1032, looked up)
chain: MASSLNELNLVQVLEQASNPQHIRSDVQKLAEQQLRQWETQAGFHYLLQSIYLNLSNSLQIRWLAVIQFKNGVDKYWRSTRINAIPKDEKASIRGRLFEMIDEQNNQLCIQNAQASARIARLDFPVEWPTLFEDLENLLNDEIIRKDSVKIYNILMHINQIVKVLGTARIGRCRPAMQSKVPLILPLIVRIYLQSFEEWTTSSNLNYEDLSSLQVSYLALKVLRRIICEGYDRPQTDQSVCDFIKLSVSHFEMLISNHENFKKFDIYEKFIKCLGKLYFNLVTGSPANFILLPCSTQILITYTRLIFDKAPKVYRENSDVTGDFWEQTAIRGLLILKRVINFIHKKGAITLKARSDKLTIDASINKINTEFLNENLITRLVDTLMEWYLRLRPTELENWFMDPEEWINEQMATSYEYQIRPCAENVFQDLMNTFSELLVPYLLKKIENDASKLSNSLDDFLRKDAIYASFQLSASAVSEMVDFDRLLIQVFLPEATNTNISGDELRIIRRRVALIINEWSTVKCSEESKSLCYKLFTNFLTDEDDKVVLLTTVQTVRTMVDDWNFNKDTFQPFLTENVHLLLRKILPSVSLTETRLYVLNTLSDIIIQTKPLISRDLLVEILQIIPNLWEIATNNASEAILANALLRLLRNLVSSLGSQSHLTWDIAIPVVALACDPSSMQYQLLSEDGYELWGMLLQNFSSHDQEFDDKFVELVPFLKYGIETHTEILPTLLEIIKSYALILNPVDFFSNNTFQDIFKQMSKYLLKLREDSFQLVLEIWEILILSNESDYENLLLQKFYETGVLSALFDAIFLEEAPSSYLCSQIIQIIARISYVNPDALMTFLATYHDNLPTSNENARMPESIRKIVSKDQTYDSVVNKLLTGWIVCFRDIFDPKFKKVHILGISSLLRTGLVPILTEFSSIASLWIEMLEEINETNRGDCEKYHLNDIVTEQSIAFHPLTAEQLRYHQLCKNNDPVHNISLKDFISQSMEYLESHLGVERYQEFLKTINPSLLENLQMFLSIQPQEARP
notes: karyopherin (importin) Kap120 of S. cerevisiae; also called Kap120-6xHis; Kap120-His; source: E. coli, IPTG induced, purified (Ni-NTA)

Columns and labels:
[1] = molecular target: B1; assay: pull-down; purified Kap120-6xHis mixed with purified Xrn1-FLAG (WT or mutant), 1 h at 4 °C in a rotator; complex captured on Ni-NTA, Western blotting; Xrn1-FLAG intensity normalized to Kap120
[2] = molecular target: T1, FLAG-tagged Xrn1 (wild type) (S. cerevisiae, UniProt P22147 1-1528); assay: as above; conditions: both partners purified
T1 construct: 5' to 3' exonuclease Xrn1 (alias Kem1) of S. cerevisiae, called full-length Xrn1 for the FLAG-tagged purified protein; also called Xrn1-FLAG; Xrn1^WT; source: genomically FLAG-tagged strain, in lysate, for the IP with mass spectrometry
T1 sequence (P22147 whole entry): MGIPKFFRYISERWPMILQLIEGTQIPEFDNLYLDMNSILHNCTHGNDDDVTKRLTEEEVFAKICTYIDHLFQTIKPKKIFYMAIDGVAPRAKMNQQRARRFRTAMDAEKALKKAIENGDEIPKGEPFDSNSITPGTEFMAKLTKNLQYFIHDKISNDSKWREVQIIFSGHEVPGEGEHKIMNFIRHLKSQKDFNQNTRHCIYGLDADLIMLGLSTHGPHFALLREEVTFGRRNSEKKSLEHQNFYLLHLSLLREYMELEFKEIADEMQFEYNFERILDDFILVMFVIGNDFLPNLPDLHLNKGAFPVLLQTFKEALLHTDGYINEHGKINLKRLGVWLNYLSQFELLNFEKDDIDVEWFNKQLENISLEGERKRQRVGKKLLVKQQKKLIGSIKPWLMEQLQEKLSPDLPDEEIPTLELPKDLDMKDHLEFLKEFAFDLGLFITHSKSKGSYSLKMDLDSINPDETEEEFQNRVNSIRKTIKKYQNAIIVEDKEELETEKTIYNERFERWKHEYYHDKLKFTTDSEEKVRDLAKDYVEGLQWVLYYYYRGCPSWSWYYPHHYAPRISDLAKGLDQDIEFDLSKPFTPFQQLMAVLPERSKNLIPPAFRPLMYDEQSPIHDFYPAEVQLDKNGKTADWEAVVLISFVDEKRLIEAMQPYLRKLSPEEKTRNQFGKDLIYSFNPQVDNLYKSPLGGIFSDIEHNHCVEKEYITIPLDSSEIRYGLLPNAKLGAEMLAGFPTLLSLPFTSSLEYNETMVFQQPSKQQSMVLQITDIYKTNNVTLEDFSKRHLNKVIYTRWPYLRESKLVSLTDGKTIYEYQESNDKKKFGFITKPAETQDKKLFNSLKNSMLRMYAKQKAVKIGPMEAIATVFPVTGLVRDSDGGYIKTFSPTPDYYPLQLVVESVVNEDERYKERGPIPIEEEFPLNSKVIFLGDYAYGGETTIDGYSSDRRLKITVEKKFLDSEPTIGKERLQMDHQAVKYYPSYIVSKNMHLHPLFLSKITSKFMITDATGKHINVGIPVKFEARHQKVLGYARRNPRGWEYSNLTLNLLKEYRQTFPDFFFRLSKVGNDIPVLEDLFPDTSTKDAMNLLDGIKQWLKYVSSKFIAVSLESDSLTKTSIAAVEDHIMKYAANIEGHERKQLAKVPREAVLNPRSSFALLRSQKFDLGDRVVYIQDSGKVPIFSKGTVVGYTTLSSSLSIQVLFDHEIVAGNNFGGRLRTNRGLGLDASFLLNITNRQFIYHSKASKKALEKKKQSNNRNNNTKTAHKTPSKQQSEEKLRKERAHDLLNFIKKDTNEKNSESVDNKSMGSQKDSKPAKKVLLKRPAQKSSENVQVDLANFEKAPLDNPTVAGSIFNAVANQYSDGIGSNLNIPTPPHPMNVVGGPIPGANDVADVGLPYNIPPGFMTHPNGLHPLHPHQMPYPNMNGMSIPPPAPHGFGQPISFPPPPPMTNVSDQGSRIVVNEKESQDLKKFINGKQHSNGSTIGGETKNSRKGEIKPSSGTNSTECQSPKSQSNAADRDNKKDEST

TAP-tagged Kap120 = molecular target: T2, TAP-tagged Kap120 (S. cerevisiae, UniProt Q02932 1-1032); assay: co-IP; TAP-tagged Kap120 affinity purified with IgG-sepharose from extract of optimally proliferating yeast (WT or Xrn1^ΔNLS1/2 cells); co-IPed proteins by Western blotting; signals normalized to Kap120; conditions: partners not purified
T2 construct: karyopherin Kap120 of S. cerevisiae, TAP-tagged, expressed in yeast; also called Kap120-TAP; source: yeast, in extract, captured on IgG-sepharose
T2 sequence (looked up): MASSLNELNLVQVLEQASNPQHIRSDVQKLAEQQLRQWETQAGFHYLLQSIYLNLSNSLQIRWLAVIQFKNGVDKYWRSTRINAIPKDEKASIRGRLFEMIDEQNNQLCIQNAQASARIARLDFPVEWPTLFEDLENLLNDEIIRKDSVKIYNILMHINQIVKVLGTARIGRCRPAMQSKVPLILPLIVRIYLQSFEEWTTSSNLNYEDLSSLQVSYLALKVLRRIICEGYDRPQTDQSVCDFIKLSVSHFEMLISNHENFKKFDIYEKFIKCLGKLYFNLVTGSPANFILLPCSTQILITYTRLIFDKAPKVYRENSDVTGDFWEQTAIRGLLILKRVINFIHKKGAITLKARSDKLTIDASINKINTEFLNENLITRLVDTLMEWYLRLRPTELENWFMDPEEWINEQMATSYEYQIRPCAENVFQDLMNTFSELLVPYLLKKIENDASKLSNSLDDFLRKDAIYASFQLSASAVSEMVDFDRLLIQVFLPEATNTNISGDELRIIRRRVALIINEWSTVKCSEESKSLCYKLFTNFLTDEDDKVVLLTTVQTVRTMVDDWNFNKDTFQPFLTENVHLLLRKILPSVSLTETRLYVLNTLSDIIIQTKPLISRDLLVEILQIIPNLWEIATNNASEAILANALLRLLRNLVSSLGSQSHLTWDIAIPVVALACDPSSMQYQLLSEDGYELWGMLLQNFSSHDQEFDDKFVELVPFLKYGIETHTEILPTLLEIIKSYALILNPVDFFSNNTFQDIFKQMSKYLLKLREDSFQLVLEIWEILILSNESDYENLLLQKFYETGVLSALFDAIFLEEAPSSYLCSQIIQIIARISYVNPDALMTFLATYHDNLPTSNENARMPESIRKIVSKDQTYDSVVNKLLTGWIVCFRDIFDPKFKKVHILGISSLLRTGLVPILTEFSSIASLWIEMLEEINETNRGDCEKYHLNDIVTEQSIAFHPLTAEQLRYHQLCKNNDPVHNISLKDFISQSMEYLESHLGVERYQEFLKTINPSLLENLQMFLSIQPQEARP

[3] = molecular target: B1; assay: pull-down; GFP-tagged Tail held on GFP-Trap resin in a small column, washed 3 times; purified Kap120-His added, 1 h at 4 °C; eluted with 2X LSB at 95 °C; conditions: both partners purified
Xrn1 WT = Xrn1 WT (Saccharomyces cerevisiae, UniProt P22147 1-1528); assay: pull-down on FLAG beads, competition by Kap120; Kap120 prevents RNA binding dose-dependently; EMSA: 50 mM Tris-HCl pH 7.4, 150 mM NaCl, 2 mM DTT, 1 mM EDTA, 30 min at room temperature, 6% native PAGE in 0.5x TBE; pull-downs with RNA: 2 mM EDTA, 1 h at 4; conditions: protein: native; tags: FLAG; label: Cy3
Sequence of Xrn1 WT (P22147 whole entry): as the sequence (P22147 whole entry) above

“FLAG-tagged Xrn1^ΔNLS1/2 (from UniProt P22147 1-1528) (enzyme)” was tested. Which fold weaker than Xrn1^WT-Kap120 [1] did it give?
The fold weaker than Xrn1^WT-Kap120 was 4.5 fold.

Does B1 bind [2]?
Result: binds

B2: Pat1 (natural protein, S. cerevisiae (endogenous in yeast), UniProt P25644 1-796, looked up)
chain: MSFFGLENSGNARDGPLDFEESYKGYGEHELEENDYLNDETFGDNVQVGTDFDFGNPHSSGSSGNAIGGNGVGATARSYVAATAEGISGPRTDGTAAAGPLDLKPMESLWSTAPPPAMAPSPQSTMAPAPAPQQMAPLQPILSMQDLERQQRQMQQQFMNFHAMGHPQGLPQGPPQQQFPMQPASGQPGPSQFAPPPPPPGVNVNMNQMPMGPVQVPVQASPSPIGMSNTPSPGPVVGATKMPLQSGRRSKRDLSPEEQRRLQIRHAKVEKILKYSGLMTPRDKDFITRYQLSQIVTEDPYNEDFYFQVYKIIQRGGITSESNKGLIARAYLEHSGHRLGGRYKRTDIALQRMQSQVEKAVTVAKERPSKLKDQQAAAGNSSQDNKQANTVLGKISSTLNSKNPRRQLQIPRQQPSDPDALKDVTDSLTNVDLASSGSSSTGSSAAAVASKQRRRSSYAFNNGNGATNLNKSGGKKFILELIETVYEEILDLEANLRNGQQTDSTAMWEALHIDDSSYDVNPFISMLSFDKGIKIMPRIFNFLDKQQKLKILQKIFNELSHLQIIILSSYKTTPKPTLTQLKKVDLFQMIILKIIVSFLSNNSNFIEIMGLLLQLIRNNNVSFLTTSKIGLNLITILISRAALIKQDSSRSNILSSPEISTWNEIYDKLFTSLESKIQLIFPPREYNDHIMRLQNDKFMDEAYIWQFLASLALSGKLNHQRIIIDEVRDEIFATINEAETLQKKEKELSVLPQRSQELDTELKSIIYNKEKLYQDLNLFLNVMGLVYRDGEISELK
notes: mRNA decay factor Pat1 of S. cerevisiae, detected with anti-Pat1 antibodies; source: endogenous, yeast extract
For B2, which “fold reduction of the co-IP in Xrn1^ΔNLS1/2 cells against WT cells” value (TAP-tagged Kap120) is on record?
Its value is ~5 fold.

B3: Dhh1 (natural protein, S. cerevisiae (endogenous in yeast), UniProt P39517 1-506, looked up)
chain: MGSINNNFNTNNNSNTDLDRDWKTALNIPKKDTRPQTDDVLNTKGNTFEDFYLKRELLMGIFEAGFEKPSPIQEEAIPVAITGRDILARAKNGTGKTAAFVIPTLEKVKPKLNKIQALIMVPTRELALQTSQVVRTLGKHCGISCMVTTGGTNLRDDILRLNETVHILVGTPGRVLDLASRKVADLSDCSLFIMDEADKMLSRDFKTIIEQILSFLPPTHQSLLFSATFPLTVKEFMVKHLHKPYEINLMEELTLKGITQYYAFVEERQKLHCLNTLFSKLQINQAIIFCNSTNRVELLAKKITDLGYSCYYSHARMKQQERNKVFHEFRQGKVRTLVCSDLLTRGIDIQAVNVVINFDFPKTAETYLHRIGRSGRFGHLGLAINLINWNDRFNLYKIEQELGTEIAAIPATIDKSLYVAENDETVPVPFPIEQQSYHQQAIPQQQLPSQQQFAIPPQQHHPQFMVPPSHQQQQAYPPPQMPSQQGYPPQQEHFMAMPPGQSQPQY
notes: mRNA decay factor Dhh1 of S. cerevisiae, detected with anti-Dhh1 antibodies; source: endogenous, yeast extract
With B3 as the molecule, how does the “fold reduction of the co-IP in Xrn1^ΔNLS1/2 cells against WT cells” value (TAP-tagged Kap120) read?
The value was ~5 fold.

B4: GFP-tagged Tail of Xrn1 (domain or fragment, S. cerevisiae, UniProt P22147 351-521, looked up)
chain: EKDDIDVEWFNKQLENISLEGERKRQRVGKKLLVKQQKKLIGSIKPWLMEQLQEKLSPDLPDEEIPTLELPKDLDMKDHLEFLKEFAFDLGLFITHSKSKGSYSLKMDLDSINPDETEEEFQNRVNSIRKTIKKYQNAIIVEDKEELETEKTIYNERFERWKHEYYHDKLK
notes: holds NLS1; also called Tail-GFP; linker domain; source: yeast, expressed under ADH1 promoter and terminator; pulled down with GFP-Trap resin and washed
Does B4 bind [3]?
Result: binds

Does AUGUACAGUCCGACGAACACGGAGUCGACCCGCAACGCGA (ssRNA) [Cy3-labeled 40 b RNA] bind (Xrn1 WT)?
Result: binds

From publication PMC9684461, “RNA-controlled nucleocytoplasmic shuttling of mRNA decay factors regulates mRNA synthesis and a novel mRNA decay pathway” (Nature Communications, 2021)
